Assay: immunofluorescence confocal microscopy, HEK293
Conditions: glycan lost; control: wt hENT1 (HA- or 3xFLAG-tagged)

B1: human equilibrative nucleoside transporter 1 (hENT1): N48Q (protein)
parent chain: MTTSHQPQDRYKAVWLIFFMLGLGTLLPWNFFMTATQYFTNRLDMSQNVSLVTAELSKDAQASAAPAAPLPERNSLSAIFNNVMTLCAMLPLLLFTYLNSFLHQRIPQSVRILGSLVAILLVFLITAILVKVQLDALPFFVITMIKIVLINSFGAILQGSLFGLAGLLPASYTAPIMSGQGLAGFFASVAMICAIASGSELSESAFGYFITACAVIILTIICYLGLPRLEFYRYYQQLKLEGPGEQETKLDLISKGEEPRAGKEESGVSVSNSQPTNESHSIKAILKNISVLAFSVCFIFTITIGMFPAVTVEVKSSIAGSSTWERYFIPVSCFLTFNIFDWLGRSLTAVFMWPGKDSRWLPSLVLARLVFVPLLLLCNIKPRRYLTVVFEHDAWFIFFMAAFAFSNGYLASLCMCFGPKKVKPAEAETAGAIMAFFLCLGLALGAVFSFLFRAIV
localisation_or_trafficking: decreases

Source: PMC5006311
